Measured values published in article PMC2873508.

How the values were obtained:
[1] = target: feline CD134 on MCC cells (feline)
[2] = target: CD134 on MYA-1 cells (not stated (endogenous in MYA-1 cells))
[3] = target: CD134 on MYA-1 cells (not stated (endogenous in MYA-1 cells)); remark: listed apart in the source
[4] = target: Chimaeric GL8 (ABSN) Env with the V4-V5 region of variant B14 (feline immunodeficiency virus (FIV), strain GL8 | feline immunodeficiency virus (FIV), strain GL8, in vivo variant)
[5] = target: FIV GL8 Env (molecular clone 414) (feline immunodeficiency virus (FIV), strain GL8)

Row | Substance | ratio of luciferase counts (CPM) of HIV(FIV) pseudotype infection on MCC cells with feline CD134 divided by counts on MCC cells with the feCRD1 chimera (feline CRD1 x human CD134); dependency on CRD2 [1] | percent infection of MYA-1 cells by HIV(FIV) pseudotype with anti-CD134 antibody, relative to no antagonist (Fig. 7A) [2] [% infection] | inhibition of HIV(FIV) pseudotype infection of MYA-1 cells by anti-CD134 antibody 7D6 (series 0.4 to 50 μg/ml; reduced by 90% at 0.4 μg/ml) (% reduction of infection) [3] | percent infection of MYA-1 cells by HIV(FIV) pseudotype (Env with cell CD134) with sFc-CD134, relative to no antagonist (Fig. 7B) [4] [% infection] | percent infection of MYA-1 cells by HIV(FIV) pseudotype (Env with cell CD134) with sFc-CD134, relative to no antagonist (Fig. 7B) [5] [% infection]
1 | FIV B2542 Env (natural protein) | 5 |  |  |  | 
2 | FIV Env of A613 variant B14 (natural protein) | 10 | 19.5 | > 99 |  | 
3 | FIV Env of A613 variant B23 (natural protein) | 223 |  |  |  | 
4 | soluble Fc-CD134 (Fc fusion) |  |  |  | 65.1 | 18.4
